Results as given in PMC8786823, “Flanking sequences influence the activity of TET1 and TET2 methylcytosine dioxygenases and affect genomic 5hmC patterns”.

Molecular target: T1, UHRF2 SRA domain (human, UniProt Q96PU4 419-648)
T1 sequence: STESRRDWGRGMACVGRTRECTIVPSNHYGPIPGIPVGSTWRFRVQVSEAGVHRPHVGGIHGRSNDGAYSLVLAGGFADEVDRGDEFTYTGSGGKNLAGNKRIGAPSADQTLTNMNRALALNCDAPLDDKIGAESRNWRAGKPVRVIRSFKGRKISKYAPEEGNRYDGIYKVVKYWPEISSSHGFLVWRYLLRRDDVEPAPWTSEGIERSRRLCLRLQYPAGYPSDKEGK
Assay: EMSA; 0.5 uM DNA; preferred over mC and unmodified DNA in the same context; 20 mM HEPES pH 7.9, 100 mM NaCl, 2 mM MgCl2, 2 mM DTT, 0.1% NP-40, 5% glycerol; 30 min on ice; 6% PAGE in 0.25X TBE, GelRed stain
Details: protein: recombinant; tags: His; blunt

B1: TET-disf-hmC/TET-disf-rev (dsDNA)
DNA 1: GAAGCTGGGACGCGCGCCGGGAGAGTGCAA
DNA 2: TTGCACTCTCCCGGCGCGCGTCCCAGCTTC
modifications: 5hmC at position 15 of strand 1 (hemihydroxymethylated CpG)
  binding result: binds
